Test [1] concerns the target T1, his-tagged human BCMA protein (ACROBiosystems, catalog # BCA-H522y-100 ug) (human, UniProt Q02223 1-54).
T1 construct: limits of the bought construct are not otherwise stated; also called recombinant his-tagged human BCMA; not shown: his tag of the bought protein
T1 sequence: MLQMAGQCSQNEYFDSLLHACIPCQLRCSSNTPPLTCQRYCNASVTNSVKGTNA
Nature of the test: SPR (Biacore T200), antibody captured on anti-human Fc chip, his-tagged human BCMA as analyte. On the procedure:
(§1) Binding kinetics of anti-BCMA antibodies with his-tagged human BCMA protein (ACROBiosystems, catalog # BCA-H522y-100 ug, UniProt Q02223-1, SEQ ID NO:92) was measured using surface plasmon resonance (SPR). Kinetic interactions between the antibodies and his-tagged BCMA proteins were measured at 25° C. using Biacore T200 surface plasmon resonance (GE Healthcare). Anti-human fragment crystallizable region (Fc region) antibody was immobilized on a CM5 sensor chip to approximately 8000 resonance units (RU) using standard N-hydroxysuccinimide/N-Ethyl-N′-(3-dimethylaminopropyl) carbodiimide hydrochloride (NHS/EDC) coupling methodology. The anti-BCMA antibody (2 μg/mL) was captured for 60 seconds at a flow rate of 10 μL/minute. The his-tagged BCMA protein was run at […] different dilutions of 3.12, 6.25, 12.5, 25, 50, 100 and 200 nM, in a running buffer of 0.01 M HEPES pH 7.4, 0.15 M NaCl, 3 mM EDTA, 0.05% v/v Surfactant P20 (HBS-EP+). The 25 nM BCMA protein run was measured two times. All measurements were conducted in HBS-EP+ buffer with a flow rate of 30 μL/minute. A 1:1 (Langmuir) binding model was used to fit the data. […]
(§2) Cross reactivity of two of the anti-BCMA antibodies, BCA7-2C5 and BCA7-2E1, with his-tagged human, cynomolgus or mouse BCMA protein were analyzed by SPR in the manner as described above. […]

In test [2] the target is T2, his-tagged mouse BCMA protein (ACROBiosystems, catalog # BCA-M52H3) (mouse, UniProt O88472 1-49).
T2 construct: Bought protein; not shown: his tag
T2 chain (looked up): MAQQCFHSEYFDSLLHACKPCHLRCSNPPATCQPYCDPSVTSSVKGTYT
The experiment in a line: SPR (Biacore T200), antibody captured on anti-human Fc chip, his-tagged mouse BCMA as analyte. As for the experimental part: as §1, §2

A further test has as its target T3, BCMA on MM1R cells (human, UniProt Q02223).
T3 construct: full length, on the surface of MM1R multiple myeloma cells; also called MM1R multiple myeloma cell line
T3 sequence (receptor, looked up): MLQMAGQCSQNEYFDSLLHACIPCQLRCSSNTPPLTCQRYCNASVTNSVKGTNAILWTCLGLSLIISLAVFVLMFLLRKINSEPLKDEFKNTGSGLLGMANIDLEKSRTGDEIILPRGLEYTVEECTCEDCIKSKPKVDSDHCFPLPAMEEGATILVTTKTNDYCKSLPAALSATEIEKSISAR
Nature of the test: flow cytometry on MM1R cells, 5x serial dilution, FITC goat anti-human IgG F(ab')2, GeoMean BL1-H. The source says:
Flow cytometry was used to test antibody binding to multiple myeloma cell line MM1R, using various anti-BCMA antibodies (5× serial dilution) and 80,000 cells per well. The secondary antibody was FITC AffiniPure FAB2 fragment goat anti-human IgG (H+L) (from Jackson Immuno Research). […] A BL-1 detector (IntelliCyt iQue Screener Plus) which detects at 530 nm was used. The geometric mean is reported.

The target in test [3] is T1, his-tagged human BCMA protein …. Nature of the test: SPR (Biacore T200), antibody captured on anti-human Fc, his-tagged human BCMA as analyte; fit with ka1/kd1/ka2/kd2 (model not named). As for the experimental part: Binding kinetics of anti-BCMA antibodies with his-tagged human BCMA protein (ACROBiosystems, catalog # BCA-H522y-100 ug, UniProt Q02223-1, SEQ ID NO:92) was measured using surface plasmon resonance (SPR). Kinetic interactions between the antibodies and his-tagged BCMA proteins were measured at 25° C. using Biacore T200 surface plasmon resonance (GE Healthcare). Anti-human fragment crystallizable region (Fc region) antibody was immobilized on a CM5 sensor chip to approximately 8000 resonance units (RU) using standard N-hydroxysuccinimide/N-Ethyl-N′-(3-dimethylaminopropyl) carbodiimide hydrochloride (NHS/EDC) coupling methodology. The anti-BCMA antibody (2 μg/mL) was captured for 60 seconds at a flow rate of 10 μL/minute. The his-tagged BCMA protein was run at […] different dilutions of 3.12, 6.25, 12.5, 25, 50, 100 and 200 nM, in a running buffer of 0.01 M HEPES pH 7.4, 0.15 M NaCl, 3 mM EDTA, 0.05% v/v Surfactant P20 (HBS-EP+). The 25 nM BCMA protein run was measured two times. All measurements were conducted in HBS-EP+ buffer with a flow rate of 30 μL/minute. […] The SPR sensorgrams of anti-BCMA antibodies BCA7, GSK J6M0, BC4C9 and BC5C4 are shown in FIGS. 1, 2, 3 and 4, respectively, and their corresponding binding kinetics are listed in Table 3.
Binding kinetics of optimized anti-BCMA antibodies BCA7-2C5, BCA7-2D11, BCA7-2G2, BCA7-2E1, BCA7-2D8 and BCA7-2E8, with his-tagged human BCMA protein (ACROBiosystems, catalog # BCA-H522y-100 ug), were analyzed in the manner as described above.
In general terms: SPR reads the build-up and loss of mass on a sensor chip optically.

B1: BCA7-2C5 antibody (antibody, V domains shown)
VH: EVQLVESGGGLVKPGGSLRLSCAASGFTSSTAWMSWVRQAPGKGLEWVGRIKSKSDGGTTDYAAPVKGRFTISRDDSKNTLFLQMNSLKTEDTAVYYCAKGGGTYGYWGQGTTVTVSS
VL: QSALTQPASVSGSPGQSVTISCTGTSSAHGGHYYVSWYQQHPGKAPKLMIYDVSNRPSGVSNRFSGSKSGNTASLTISGLQAEDEADYYCGSYTSSGSYVFGTGTKLTVL
The Kd is the free concentration of one partner at which half of the binding sites on the other are occupied at equilibrium, for simple one-to-one binding. The EC50 (read off the curve) is the midpoint of the concentration-response curve. A higher EC50 (read off the curve) goes with a need for much substance. Turning to B1, the Kd in test [1] turned out to be 19.4 nM. The same molecule gave a dissociation constant Kd in test [2] of 880 nM. Besides, the half-maximal effective concentration (EC50 (read off the curve)) in the test with BCMA on MM1R cells is approximately 0.08 µg/mL. In test [3], this molecule had a dissociation constant (Kd) of 19.4 nM, a ka1 of 1.37e+06 M⁻¹ s⁻¹, a ka2 of 0.000847 s⁻¹ and a kd1 of 0.0422 s⁻¹. Also, the kd2 in test [3] amounted to 0.00145 s⁻¹.

Values taken from patent publication US20210388097A1 (SORRENTO THERAPEUTICS, published 2021).
